Experimental data reported in article PMC9482650, “Quantitative fragmentomics allow affinity mapping of interactomes” (Nature Communications, 2022).

B1: NOS1AP, O75052 (peptide)
chain: GDGLDDEIAV
B2: SMCHD1, A6NHR9 (peptide)
chain: QNRIITKTDV

biological target: Inadl_8, Q8NI35; assay: holdup assay; set-up: key: below the threshold = too weak to quantify, mostly under pKd 3.1 to 4; details: plain residues with an end cap or a label only (N-terminal biotin on a linker: ado-ado)
Sequence (Q8NI35 1425-1530): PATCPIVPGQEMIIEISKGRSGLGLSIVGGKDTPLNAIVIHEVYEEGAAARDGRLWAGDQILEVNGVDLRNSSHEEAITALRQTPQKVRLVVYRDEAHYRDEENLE

Q: With B1 as the binder, how does the pKd read?
A: below the threshold

Q: With B2 as the binder, how does the pKd read?
A: 4.77

biological target: T1, RHPN1, Q8TCX5; assay: holdup assay; set-up: key: below the threshold = too weak to quantify, mostly under pKd 3.1 to 4; details: plain residues with an end cap or a label only (N-terminal biotin on a linker: ado-ado)
T1 sequence (Q8TCX5 508-602, limits assumed, looked up): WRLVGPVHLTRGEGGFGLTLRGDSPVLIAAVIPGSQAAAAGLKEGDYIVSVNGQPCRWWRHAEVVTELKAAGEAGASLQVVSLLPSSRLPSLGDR

Q: B1 was tested. Which pKd did it give?
A: below the threshold

Q: Which pKd does the source give for B2 here?
A: below the threshold

biological target: GRIP2_3, Q9C0E4; assay: holdup assay; set-up: key: below the threshold = too weak to quantify, mostly under pKd 3.1 to 4; details: plain residues with an end cap or a label only (N-terminal biotin on a linker: ado-ado)
Sequence (Q9C0E4 238-339): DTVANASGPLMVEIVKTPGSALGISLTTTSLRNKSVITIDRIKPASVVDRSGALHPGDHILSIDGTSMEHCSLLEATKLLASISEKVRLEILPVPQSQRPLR

Q: For B1, which pKd is on record?
A: below the threshold

Q: For B2, which pKd is on record?
A: below the threshold

biological target: T2, LIN7B, Q9HAP6; assay: holdup assay; set-up: key: below the threshold = too weak to quantify, mostly under pKd 3.1 to 4; details: plain residues with an end cap or a label only (N-terminal biotin on a linker: ado-ado)
T2 sequence (Q9HAP6 88-185, limits assumed, looked up): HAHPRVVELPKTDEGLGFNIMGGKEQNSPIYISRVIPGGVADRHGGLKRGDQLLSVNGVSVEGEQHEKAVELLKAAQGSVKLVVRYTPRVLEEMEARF

Q: Which pKd does the source give for B1 here?
A: 3.52

Q: For B2, which pKd is on record?
A: below the threshold

biological target: T3, TX1BP3, O14907; assay: holdup assay; set-up: key: below the threshold = too weak to quantify, mostly under pKd 3.1 to 4; details: plain residues with an end cap or a label only (N-terminal biotin on a linker: ado-ado)
T3 sequence (O14907 10-122, limits assumed, looked up): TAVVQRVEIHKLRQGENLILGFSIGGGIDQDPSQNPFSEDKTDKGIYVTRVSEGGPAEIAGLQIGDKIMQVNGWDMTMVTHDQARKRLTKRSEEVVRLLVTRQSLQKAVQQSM

Q: With B1 as the binder, how does the pKd read?
A: below the threshold

Q: Which pKd does the source give for B2 here?
A: 3.51

biological target: PDLIM1, O00151; assay: holdup assay; set-up: key: below the threshold = too weak to quantify, mostly under pKd 3.1 to 4; details: plain residues with an end cap or a label only (N-terminal biotin on a linker: ado-ado)
Sequence (O00151 1-87): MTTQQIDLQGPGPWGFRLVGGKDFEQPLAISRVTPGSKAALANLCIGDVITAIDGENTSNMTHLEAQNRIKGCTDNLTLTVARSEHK

Q: How did the pKd turn out when B1 was run?
A: below the threshold

Q: How did the pKd turn out when B2 was run?
A: below the threshold

biological target: T4, LNX2_2, Q8N448; assay: holdup assay; set-up: key: below the threshold = too weak to quantify, mostly under pKd 3.1 to 4; details: plain residues with an end cap or a label only (N-terminal biotin on a linker: ado-ado)
T4 sequence (Q8N448 334-432, limits assumed, looked up): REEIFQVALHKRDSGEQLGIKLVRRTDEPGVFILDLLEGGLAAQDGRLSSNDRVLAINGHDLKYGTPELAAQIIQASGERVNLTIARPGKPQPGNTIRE

Q: With B1 as the binder, how does the pKd read?
A: 4.37

Q: With B2 as the binder, how does the pKd read?
A: below the threshold

biological target: HTRA2, O43464; assay: holdup assay; set-up: key: below the threshold = too weak to quantify, mostly under pKd 3.1 to 4; details: plain residues with an end cap or a label only (N-terminal biotin on a linker: ado-ado)
Sequence (O43464 355-458): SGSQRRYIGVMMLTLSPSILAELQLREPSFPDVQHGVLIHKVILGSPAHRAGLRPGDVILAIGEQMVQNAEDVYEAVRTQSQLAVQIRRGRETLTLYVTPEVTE

Q: With B1 as the binder, how does the pKd read?
A: below the threshold

Q: How did the pKd turn out when B2 was run?
A: below the threshold

biological target: T5, SNTG2, Q9NY99; assay: holdup assay; set-up: key: below the threshold = too weak to quantify, mostly under pKd 3.1 to 4; details: plain residues with an end cap or a label only (N-terminal biotin on a linker: ado-ado)
T5 sequence (Q9NY99 68-166, limits assumed, looked up): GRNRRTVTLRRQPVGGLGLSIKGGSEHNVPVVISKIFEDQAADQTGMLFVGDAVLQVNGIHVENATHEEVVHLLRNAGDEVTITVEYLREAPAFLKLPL

Q: Which pKd does the source give for B1 here?
A: below the threshold

Q: With B2 as the binder, how does the pKd read?
A: below the threshold

biological target: FRMPD2_1, Q68DX3; assay: holdup assay; set-up: key: below the threshold = too weak to quantify, mostly under pKd 3.1 to 4; details: plain residues with an end cap or a label only (N-terminal biotin on a linker: ado-ado)
Sequence (Q68DX3 770-861): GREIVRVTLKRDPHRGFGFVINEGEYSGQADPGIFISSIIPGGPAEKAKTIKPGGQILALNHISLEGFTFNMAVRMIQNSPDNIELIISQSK

Q: For B1, which pKd is on record?
A: below the threshold

Q: Which pKd does the source give for B2 here?
A: below the threshold

biological target: IL16_1, Q14005; assay: holdup assay; set-up: key: below the threshold = too weak to quantify, mostly under pKd 3.1 to 4; details: plain residues with an end cap or a label only (N-terminal biotin on a linker: ado-ado)
Sequence (Q14005 210-306): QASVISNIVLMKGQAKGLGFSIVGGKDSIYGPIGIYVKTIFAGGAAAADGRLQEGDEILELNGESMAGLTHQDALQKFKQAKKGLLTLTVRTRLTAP

Q: For B1, which pKd is on record?
A: below the threshold

Q: Which pKd does the source give for B2 here?
A: below the threshold

biological target: SNX27, Q96L92; assay: holdup assay; set-up: key: below the threshold = too weak to quantify, mostly under pKd 3.1 to 4; details: plain residues with an end cap or a label only (N-terminal biotin on a linker: ado-ado)

Q: How did the pKd turn out when B1 was run?
A: 4.19

Q: B2 was tested. Which pKd did it give?
A: 3.84

biological target: T6, PDZRN3_1, Q9UPQ7; assay: holdup assay; set-up: key: below the threshold = too weak to quantify, mostly under pKd 3.1 to 4; details: plain residues with an end cap or a label only (N-terminal biotin on a linker: ado-ado)
T6 sequence (Q9UPQ7 244-349, limits assumed, looked up): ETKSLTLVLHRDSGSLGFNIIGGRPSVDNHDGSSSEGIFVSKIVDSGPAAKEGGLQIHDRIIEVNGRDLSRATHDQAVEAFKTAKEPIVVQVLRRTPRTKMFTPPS

Q: How did the pKd turn out when B1 was run?
A: below the threshold

Q: How did the pKd turn out when B2 was run?
A: below the threshold

biological target: DLG4_2, P78352; assay: holdup assay; set-up: key: below the threshold = too weak to quantify, mostly under pKd 3.1 to 4; details: plain residues with an end cap or a label only (N-terminal biotin on a linker: ado-ado)
Sequence (P78352 155-259): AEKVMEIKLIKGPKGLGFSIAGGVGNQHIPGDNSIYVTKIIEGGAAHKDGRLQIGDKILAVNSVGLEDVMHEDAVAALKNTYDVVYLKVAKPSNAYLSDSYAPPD

Q: For B1, which pKd is on record?
A: below the threshold

Q: B2 was tested. Which pKd did it give?
A: 4.15

biological target: T7, DLG3_1, Q92796; assay: holdup assay; set-up: key: below the threshold = too weak to quantify, mostly under pKd 3.1 to 4; details: plain residues with an end cap or a label only (N-terminal biotin on a linker: ado-ado)
T7 sequence (Q92796 125-227, limits assumed, looked up): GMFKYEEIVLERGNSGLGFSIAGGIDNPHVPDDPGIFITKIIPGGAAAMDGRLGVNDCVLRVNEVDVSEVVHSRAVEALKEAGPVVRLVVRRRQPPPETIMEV

Q: Which pKd does the source give for B1 here?
A: below the threshold

Q: How did the pKd turn out when B2 was run?
A: below the threshold

biological target: T8, FRMPD1, Q5SYB0; assay: holdup assay; set-up: key: below the threshold = too weak to quantify, mostly under pKd 3.1 to 4; details: plain residues with an end cap or a label only (N-terminal biotin on a linker: ado-ado)
T8 sequence (Q5SYB0 52-145, limits assumed, looked up): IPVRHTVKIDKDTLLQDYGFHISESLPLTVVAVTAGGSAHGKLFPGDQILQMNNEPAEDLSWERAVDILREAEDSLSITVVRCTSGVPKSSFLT

Q: B1 was tested. Which pKd did it give?
A: below the threshold

Q: How did the pKd turn out when B2 was run?
A: below the threshold

biological target: IL16_4, Q14005; assay: holdup assay; set-up: key: below the threshold = too weak to quantify, mostly under pKd 3.1 to 4; details: plain residues with an end cap or a label only (N-terminal biotin on a linker: ado-ado)
Sequence (Q14005 1229-1329): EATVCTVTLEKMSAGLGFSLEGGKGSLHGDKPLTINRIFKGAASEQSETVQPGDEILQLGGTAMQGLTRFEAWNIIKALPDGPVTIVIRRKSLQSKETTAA

Q: With B1 as the binder, how does the pKd read?
A: below the threshold

Q: For B2, which pKd is on record?
A: below the threshold

biological target: T9, MPP2, Q14168; assay: holdup assay; set-up: key: below the threshold = too weak to quantify, mostly under pKd 3.1 to 4; details: plain residues with an end cap or a label only (N-terminal biotin on a linker: ado-ado)
T9 sequence (Q14168 180-250, limits assumed, looked up): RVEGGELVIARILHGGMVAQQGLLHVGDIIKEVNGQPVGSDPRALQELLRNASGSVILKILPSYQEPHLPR

Q: With B1 as the binder, how does the pKd read?
A: below the threshold

Q: Which pKd does the source give for B2 here?
A: below the threshold

biological target: T10, PCLO, Q9Y6V0; assay: holdup assay; set-up: key: below the threshold = too weak to quantify, mostly under pKd 3.1 to 4; details: plain residues with an end cap or a label only (N-terminal biotin on a linker: ado-ado)
T10 sequence (Q9Y6V0 4491-4600, limits assumed, looked up): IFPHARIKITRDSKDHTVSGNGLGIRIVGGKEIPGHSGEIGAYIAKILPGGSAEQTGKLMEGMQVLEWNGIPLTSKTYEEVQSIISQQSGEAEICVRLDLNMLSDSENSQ

Q: For B1, which pKd is on record?
A: below the threshold

Q: For B2, which pKd is on record?
A: below the threshold

biological target: Inadl_4, Q8NI35; assay: holdup assay; set-up: key: below the threshold = too weak to quantify, mostly under pKd 3.1 to 4; details: plain residues with an end cap or a label only (N-terminal biotin on a linker: ado-ado)
Sequence (Q8NI35 547-651): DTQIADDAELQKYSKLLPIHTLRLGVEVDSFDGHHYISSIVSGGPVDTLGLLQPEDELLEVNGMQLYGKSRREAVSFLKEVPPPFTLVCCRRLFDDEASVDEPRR

Q: For B1, which pKd is on record?
A: below the threshold

Q: Which pKd does the source give for B2 here?
A: below the threshold

biological target: NHERF4_1, Q86UT5-2; assay: holdup assay; set-up: key: below the threshold = too weak to quantify, mostly under pKd 3.1 to 4; details: plain residues with an end cap or a label only (N-terminal biotin on a linker: ado-ado)
Sequence (Q86UT5 other isoform, or with tags, fused parts or gaps): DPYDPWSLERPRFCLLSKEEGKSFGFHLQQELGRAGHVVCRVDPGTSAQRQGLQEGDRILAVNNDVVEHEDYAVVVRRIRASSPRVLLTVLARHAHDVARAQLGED

Q: Which pKd does the source give for B1 here?
A: below the threshold

Q: B2 was tested. Which pKd did it give?
A: below the threshold

biological target: LIMK2, P53671; assay: holdup assay; set-up: key: below the threshold = too weak to quantify, mostly under pKd 3.1 to 4; details: plain residues with an end cap or a label only (N-terminal biotin on a linker: ado-ado)
Sequence (P53671 143-248): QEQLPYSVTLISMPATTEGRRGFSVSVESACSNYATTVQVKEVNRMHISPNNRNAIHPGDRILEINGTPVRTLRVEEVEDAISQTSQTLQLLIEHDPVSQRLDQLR

Q: How did the pKd turn out when B1 was run?
A: below the threshold

Q: With B2 as the binder, how does the pKd read?
A: below the threshold

biological target: DLG4_3, P78352; assay: holdup assay; set-up: key: below the threshold = too weak to quantify, mostly under pKd 3.1 to 4; details: plain residues with an end cap or a label only (N-terminal biotin on a linker: ado-ado)
Sequence (P78352 306-403): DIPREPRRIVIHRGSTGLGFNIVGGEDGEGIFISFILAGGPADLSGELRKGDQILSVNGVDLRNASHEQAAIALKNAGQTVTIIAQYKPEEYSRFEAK

Q: For B1, which pKd is on record?
A: below the threshold

Q: For B2, which pKd is on record?
A: below the threshold

biological target: IL16_3, Q14005; assay: holdup assay; set-up: key: below the threshold = too weak to quantify, mostly under pKd 3.1 to 4; details: plain residues with an end cap or a label only (N-terminal biotin on a linker: ado-ado)
Sequence (Q14005 1107-1207): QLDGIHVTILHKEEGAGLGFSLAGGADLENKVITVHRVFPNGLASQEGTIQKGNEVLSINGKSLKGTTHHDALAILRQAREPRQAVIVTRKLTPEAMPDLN

Q: B1 was tested. Which pKd did it give?
A: below the threshold

Q: With B2 as the binder, how does the pKd read?
A: below the threshold

biological target: HTRA1, Q92743; assay: holdup assay; set-up: key: below the threshold = too weak to quantify, mostly under pKd 3.1 to 4; details: plain residues with an end cap or a label only (N-terminal biotin on a linker: ado-ado)
Sequence (Q92743 360-477): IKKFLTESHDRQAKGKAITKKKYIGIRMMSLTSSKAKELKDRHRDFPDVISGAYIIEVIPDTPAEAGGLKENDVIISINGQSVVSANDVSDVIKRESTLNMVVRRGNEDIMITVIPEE

Q: Which pKd does the source give for B1 here?
A: 4.68

Q: With B2 as the binder, how does the pKd read?
A: below the threshold

biological target: PARD3_3, Q8TEW0; assay: holdup assay; set-up: key: below the threshold = too weak to quantify, mostly under pKd 3.1 to 4; details: plain residues with an end cap or a label only (N-terminal biotin on a linker: ado-ado)
Sequence (Q8TEW0 582-685): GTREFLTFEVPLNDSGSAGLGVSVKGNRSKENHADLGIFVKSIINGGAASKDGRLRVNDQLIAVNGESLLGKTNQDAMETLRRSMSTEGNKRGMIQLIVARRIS

Q: For B1, which pKd is on record?
A: 4.3

Q: Which pKd does the source give for B2 here?
A: below the threshold

biological target: T11, SNTA1, Q13424; assay: holdup assay; set-up: key: below the threshold = too weak to quantify, mostly under pKd 3.1 to 4; details: plain residues with an end cap or a label only (N-terminal biotin on a linker: ado-ado)
T11 sequence (Q13424 82-180, limits assumed, looked up): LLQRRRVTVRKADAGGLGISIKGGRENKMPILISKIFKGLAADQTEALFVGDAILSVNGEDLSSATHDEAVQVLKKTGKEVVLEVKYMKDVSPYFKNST

Q: With B1 as the binder, how does the pKd read?
A: 3.75

Q: For B2, which pKd is on record?
A: 3.61
